Test results published in the nanobody polyreactivity screen of Harvey et al. (2022).

Assay: yeast display, Sf9 membrane polyspecificity reagent, FACS + sequencing; frameworks hold sequencing errors
In short: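 Polyreactivity labels are assigned by the sorting gate from which each nanobody was recovered. The gates were low and high (top ~1%), set on anti-HA fluorescence for expression and streptavidin fluorescence for reagent binding. Before sorting, galactose-induced (36–48 hours) yeast display cells were stained for 1 hour at 4 °C with 10% biotinylated, detergent-solubilized Sf9 membrane reagent.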

| Sequence | polyreactivity (PSR sort gate) |
| --- | --- |
| QVQLVESGGGLVQAGGSLRLSCAASGFIFQYYAMGWYRQAPGKERELVAAITPSGTSTYYADSVKGRFTISRDNAKNTVYLQMNSLKPEDTAVYYCAVRYYFVDFHSTTGYPYSYDYWGQGTQVTVSS | low polyreactivity |
| QVQLVESGGGLVQAGGSLRLSCAASGFIFRDNAMGWSRQAPGKERELVAAISKSGGRTYYADSVKGRFTISRDNAKNTVYLQMNSLKPEETAVYYCAKASRYWSLYYWGQGSQVTVSS | high polyreactivity |
| QVQLVESGGGLVQAGGSLRLSCAASGFIFRDNAMGWYRPAPGKERELVAAISKSGGRTYYADSVKGRFTISRDNAKNTVYLQMNSLKPEDTAVYYCAKASRYWSLYYWGQGTQVTVSS | high polyreactivity |
| QVQLVESGGGLVQAGGSLRLSCAASGFIFRFNAMGWYIQAPGKSRELVAAISWSGSSTYYADSVKGRFTISRDNAKNTVYLQMTSLKPEDTAVYYCATSSLYYTIVKGDFYYWGQGTQVTVSS | high polyreactivity |
| QVQLVESGGGLVQAGGSLRLSCAASGFIFRFYAMGWYRQAPGKERELVATISKRGGTTYYADSVKGRFTISRDNAKNTVYLQMNSLKPEDTAVYYCAVRLYLEMDYWGQGTQVTVSS | high polyreactivity |
| QVQLVESGGGLVQAGGSLRLSCAASGFIFRGNAMGWYRQAPGKERELVAAISKSGGRTYYADSVKGRFTISRDNAKNTVYLQMNSLKPEDTAVYYCNVLRLGLGRESDSWGQGTQVTVSS | high polyreactivity |
| QVQLVESGGGLVQAGGSLRLSCAASGFIFRGNAMGWYRQAPGKERELVAAISKSGGRTYYADSVKGRFTISRDNAKNTVYLQMNSLKPEDTAVYYCNVLRMGLGRESDSWGQGTQVTVSA | high polyreactivity |
| QVQLVESGGGLVQAGGSLRLSCAASGFIFRGNAMGWYRQAPGKERELVASISRTGDTTYYADSVKGRFTISRDNAKNTVYLQMNSLKPEDTAVYYCARRSRVGYPLDSWGQGTQVTVSS | high polyreactivity |
| QVQLVESGGGLVQAGGSLRLSCAASGFIFRGYAMGLYRQAPGKERELVAAISKSGGSTYYADSVKGRFTISRDNAKNTVYLQMNSLKPEDTAVYYCATDILIDGFYYDYWGQGTQVTVSS | high polyreactivity |
| QVQLVESGGGLVQAGGSLRLSCAASGFIFRGYAMGWYRQAPGKERELVAAISRRGGSTYYADSVKGRFTISRDNAKNTVYLQMNSLKPEDTAVYYCNADTTPQGNVRDGYWGQGTQVTVSS | high polyreactivity |
| QVQLVESGGGLVQAGGSLRLSCAASGFIFRINAMGWYRQAPGKERELVAAISSSGGSTYYADSVKGRFTISRDNAKNTVYLQMNSLKPEDTAVYYCNAVGTGGYSSEYGYWGQGTQVTVSS | high polyreactivity |
| QVQLVESGGGLVQAGGSLRLSCAASGFIFRKYAMGWYRQAPGKERELVAAITASGGSTYYADSVKGRFTISRDNAKNTVYLQMNSLKPEDTAVYYCATDYHGAERWLKYDYWGQGTQVTVSS | high polyreactivity |
| QVQLVESGGGLVQAGGSLRLSCAASGFIFRNYAMGWYRQAPGKERELVAGITSSGGRTYYADSVKGRFTISRDNAKNTVYLQMNSLKPEDTAVYYCNIDVLYYRYTSFSNRYYYWGQGTQVTVSS | high polyreactivity |
| QVQLVESGGGLVQAGGSLRLSCAASGFIFRPYVMGWYRQAPGKERELVAAISRSGSSTYYADSVKGRFTISRDNAKNTVYLQMNSLKPEDTAVYYCARRTSQEFDYWGQGTQVTVSS | high polyreactivity |
| QVQLVESGGGLVQAGGSLRLSCAASGFIFRQYVMGWYRQAPGKERELVAAISWRTTSTYYADSVKGRFTISRDNAKNTVYLQMNSLKPEDTAVYYCAAPQVWWGYYTRGVDYWGQGTQVTVSS | low polyreactivity |
| QVQLVESGGGLVQAGGSLRLSCAASGFIFRRNAMGWYRQAPGKERELVAAISTRGGITYYADSVKGRFTISRDNAKNTVYLQMNSLKPDDTAVYYCAVVFVWGWPGYYWGQGTQVTVSS | high polyreactivity |
| QVQLVESGGGLVQAGGSLRLSCAASGFIFRRNAMGWYRQAPGKERELVASIRSGGSTKYADSVKGRFTISRDNAKNTVYLQMTSLKPEDTAVYYCNADDPGYAVPWYWFKYDYWGQGTQVTVSS | low polyreactivity |
| QVQLVESGGGLVQAGGSLRLSCAASGFIFRRYAMGWYRQAPGKDRALVAAITIGGSTSYADSVKGRFTISRDNAKKTVYVQMNSLKPEDTAVYYCNAGSFSRKARRYDYWGQGTQVTVSS | high polyreactivity |
| QVQLVESGGGLVQAGGSLRLSCAASGFIFRRYAMGWYRQAPGKERELVAAIRWDDGNTYYADSVKGRFTISRDNAKNTVYLQMNSLKPEDTAVYYCNADKWSSTDDWLYDYWGQGTQVTVSS | low polyreactivity |
| QVQLVESGGGLVQAGGSLRLSCAASGFIFRRYAMGWYRQAPGKERELVAAISGSGGRTYYADSVKGRFTISRDNAKNTVYLQMNSLKPEDTAVYYCAADHGSLLYDYWGQGTQVTVSS | high polyreactivity |
| QVQLVESGGGLVQAGGSLRLSCAASGFIFRRYAMGWYRQAPGKERELVAAISYNVVSTYYADSVKGRFTISRDNAKNTVYLQLNSLKPEVTAVYYCNTASSYRSFRYNYWGQGTQVTVSS | high polyreactivity |
| QVQLVESGGGLVQAGGSLRLSCAASGFIFRRYAMGWYRQAPGKERELVAGISNRGGRTYYADSVKGRFTISRDNAKNTVYLQMNSLKPEDTAVYYCAADQKSGYRVSRYYVFYDYWGQGTQVTVSS | high polyreactivity |
| QVQLVESGGGLVQAGGSLRLSCAASGFIFRRYAMGWYRQAPGKERELVAIITSGVRTYSADSVKGRFTISRDNAKNTVYLQMNSLKPEDTAVYYCAARVKDYPEYDYWGQGTQVTVSS | low polyreactivity |
| QVQLVESGGGLVQAGGSLRLSCAASGFIFRRYVMGWYRQAPGKERELVAAISNGGGRTYYADSVKGRFTISRDNAKNTVYLQMNSLKPEDTAVYYCAAYPRGPLAPDYDYWGQGTQVTVSS | high polyreactivity |
| QVQLVESGGGLVQAGGSLRLSCAASGFIFRRYVMGWYRQAPGKERELVAAISRGGSTYYADSVKGRFTISRDNAKNTVYLQMNSLKPEDTAVYYCNTPGGFVGDDYDYWGQGTQVTVSS | high polyreactivity |
| QVQLVESGGGLVQAGGSLRLSCAASGFIFRSYAMGWYRQAPGKERELVAGISYRGGSTYYADSVKGRFTISRDNAKNTVYLQMNSLKPEDTAVYYCAATAWYNWYFGLDYWGQGTQVTVSS | high polyreactivity |
| QVQLVESGGGLVQAGGSLRLSCAASGFIFRVNALGGSRPAPGKERVLVAARISSSGSTYYADSVKGRFTISRDNAKNTVYLQMNSLKPEDTAVYYCAADPYYLQQFDYWGQGTQVTVSS | low polyreactivity |
| QVQLVESGGGLVQAGGSLRLSCAASGFIFRVNAMGWYRQAPGKERELVAAISRRGGSTYYADSVKGRFTISRDNAKNTVYLQMNSLKPEDTAVYYCAVKGASYPAYRGYDYWGQGTQVTVSS | high polyreactivity |
| QVQLVESGGGLVQAGGSLRLSCAASGFIFRVNAMGWYRQAPGKERELVAAISSSGTSTYYADSVKGRFTISRDNAKNTVYLQMNSLKPEDTAVYYCAARLFYRSAYGYWGQGTQVTVSS | high polyreactivity |
| QVQLVESGGGLVQAGGSLRLSCAASGFIFRVYAMGWYRQAPGKERELVAAISDSGGSTTYADSVKGRFTISRDNAKNTVYLQMNSLKPEDTAVYYCAADYDFFSLYLYDYWGQGTQVTVSS | low polyreactivity |
